From article PMC4041471, “Cas6 specificity and CRISPR RNA loading in a complex CRISPR-Cas system” (Nucleic Acids Research, 2014)

What was measured:
[1] = target: Recombinant Cas6-1 (Sso1437) (S. solfataricus) (UniProt Q97Y96); assay: SEC; recombinant Cas6-1 alone on Superdex 200 in GF buffer (20 mM sodium phosphate pH 7.5, 250 mM NaCl, 5 mM EDTA, 0.5 mM DTT)
Cas6-1 [2] = target: T1, Cas6-1 (Saccharolobus/Sulfolobus solfataricus P2, UniProt Q97Y96 1-287); assay: fluorescence quenching; 25 C; apparent Kd, fit with variable Hill coefficient; EMSA: NR buffer (composition not in material) with 2 uM BSA, 0.5 nM RNA (legend: 1 nM), 15 min at 20 C, 6% native PAGE in 1x TBE; fluorescence quenching at 25 C, buffer not in material; conditions: protein: recombinant; chain copies: 2; label: 5'-FAM
T1 sequence: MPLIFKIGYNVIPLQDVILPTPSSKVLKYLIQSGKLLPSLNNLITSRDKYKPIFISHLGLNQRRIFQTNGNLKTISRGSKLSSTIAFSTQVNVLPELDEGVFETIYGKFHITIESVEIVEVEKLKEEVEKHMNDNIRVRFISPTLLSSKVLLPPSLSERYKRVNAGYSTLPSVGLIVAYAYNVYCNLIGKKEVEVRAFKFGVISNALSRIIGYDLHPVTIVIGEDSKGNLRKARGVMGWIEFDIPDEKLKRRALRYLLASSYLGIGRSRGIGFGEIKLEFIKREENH

Cas6-1 [3] = target: T1, Cas6-1; assay: EMSA; 20 C; apparent Kd, intermediate shifted species; EMSA: NR buffer (composition not in material) with 2 uM BSA, 0.5 nM RNA (legend: 1 nM), 15 min at 20 C, 6% native PAGE in 1x TBE; fluorescence quenching at 25 C, buffer not in material; conditions: protein: recombinant; chain copies: 2; label: 5'-32P
Cas6-1 [4] = target: T1, Cas6-1; assay: EMSA; 20 C; apparent Kd, no intermediate bands; EMSA: NR buffer (composition not in material) with 2 uM BSA, 0.5 nM RNA (legend: 1 nM), 15 min at 20 C, 6% native PAGE in 1x TBE; fluorescence quenching at 25 C, buffer not in material; conditions: protein: recombinant; chain copies: 2; label: 5'-32P
Cas6-1 [5] = target: T1, Cas6-1; assay: fluorescence quenching; 25 C; apparent Kd, fit with variable Hill coefficient; partial cleavage not ruled out; EMSA: NR buffer (composition not in material) with 2 uM BSA, 0.5 nM RNA (legend: 1 nM), 15 min at 20 C, 6% native PAGE in 1x TBE; fluorescence quenching at 25 C, buffer not in material; conditions: protein: recombinant; chain copies: 2; label: 5'-FAM
[6] = target: the molecule itself; assay: SEC; S. solfataricus cell lysate on Superdex 200 in GF buffer (20 mM sodium phosphate pH 7.5, 250 mM NaCl, 5 mM EDTA, 0.5 mM DTT); 2 ml fractions analysed by western blotting

## Recombinant Cas6-1 (Sso1437) (from UniProt Q97Y96 1-287) (enzyme)
[1]
  stoichiometry N: 2

## UGAUAAUCUCUUAUAGA (ssRNA, 3'-phosphate) [FAM-CDproduct RNA]
Cas6-1 [2]
  Kd: ~14 nM

## GAUAAUCUCUUAUAGAAUUGAAAG (ssRNA) [CD-repeat RNA (32P)]
Cas6-1 [3]
  Kd: ~16 nM

## GAUUAAUCCCAAAAGGAAUUGAAAG (ssRNA) [AB-repeat RNA (32P)]
Cas6-1 [4]
  Kd: 350 nM

## UGAUAAUCUCUUAUAGAAUUGAAAG (ssRNA) [FAM-CD repeat RNA]
Cas6-1 [5]
  Kd: ~14 nM

B1: Cmr7 (Sso1986) subunit of CMR, free protein in the lysate (natural protein, UniProt Q97WX5 1-197, looked up)
chain: MTSGAGWEEQVFLPITNSISSEDNNQIKIGSSVSIEYNQNGQHVSQIDDKGLHNILVLTGYAIDESTGELVPTFDPCDYVKGILISGKILKGNHFKIIGIPSNKLYIIRKKDVHGNITFSLPIKNFNTGTYQVDLRDKVTSFVSLDRDVAKTIVDNVLAKIYAKIYNSLNKEQKDKLYRDVEEIFNYYSIKSLKSNP
notes: Cmr7 (Sso1986), subunit of the CMR complex of Sulfolobus solfataricus; also called dimeric Cmr7 protein; source: endogenous, S. solfataricus lysate
[6]
  stoichiometry N: 2
